The assay concerns the target LDL receptor (cell surface) (UniProt P01130). Put plainly: other, cell binding, total binding double reciprocal plot.

Sequence of LDL receptor (cell surface) (P01130 22-788): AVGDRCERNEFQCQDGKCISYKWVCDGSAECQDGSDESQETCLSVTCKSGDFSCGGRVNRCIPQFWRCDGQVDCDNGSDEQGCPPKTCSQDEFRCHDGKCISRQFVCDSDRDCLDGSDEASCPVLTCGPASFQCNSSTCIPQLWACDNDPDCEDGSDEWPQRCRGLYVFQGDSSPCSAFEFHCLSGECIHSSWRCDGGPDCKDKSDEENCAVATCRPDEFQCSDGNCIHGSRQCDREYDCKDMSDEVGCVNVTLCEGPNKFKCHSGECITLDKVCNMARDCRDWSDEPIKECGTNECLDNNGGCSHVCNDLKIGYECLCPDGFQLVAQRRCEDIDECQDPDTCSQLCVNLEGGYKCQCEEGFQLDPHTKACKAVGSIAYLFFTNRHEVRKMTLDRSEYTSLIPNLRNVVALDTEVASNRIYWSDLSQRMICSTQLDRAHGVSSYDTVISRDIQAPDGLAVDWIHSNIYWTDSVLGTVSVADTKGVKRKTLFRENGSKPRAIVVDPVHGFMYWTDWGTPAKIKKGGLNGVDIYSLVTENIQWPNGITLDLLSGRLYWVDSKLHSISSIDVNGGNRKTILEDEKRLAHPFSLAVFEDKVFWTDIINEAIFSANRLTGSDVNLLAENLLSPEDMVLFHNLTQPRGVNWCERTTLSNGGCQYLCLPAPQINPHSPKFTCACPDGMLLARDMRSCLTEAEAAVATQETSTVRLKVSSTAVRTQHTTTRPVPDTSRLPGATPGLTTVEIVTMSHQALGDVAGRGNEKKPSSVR

In the case of YKLEGTTRLTRKRGLKLATALS [[Peptide D] nLDL], the Kd worked out at 3 µM.

Molecule YKLQGTTRLTRKRGLKLATALS [[Peptide C] nLDL] gave a Kd of 7.7 µM.

GTTRLTRKRGLKL [[Peptide B] nLDL]: the affinity, expressed as Kd, was 9.3 µM.

TGKRYRLKTLRTLKKTSLLEAA [[Peptide E] nLDL]: the Kd stood at 15.2 µM.

For orientation: Kd means the concentration at which binding is half-saturated.
